Assay results reported in patent publication US20050079613A1, “Downregulation of cell surface glycoproteins by a family of human ubiquitin ligases” (Oregon Health & Science University, priority 2002, published 2005).

How the values were obtained:
Type in all cases: cell-based, human
CD4 = assay: Surface expression of co-transfected CD4 on HeLa cells, flow cytometry
Procedure: (§1) Flow cytometry. Cells were removed from tissue culture dishes with 0.05% Trypsin-EDTA (Invitrogen), washed with ice-cold PBS, and incubated with appropriate antibody for 30 minutes at 4° C. The cells were washed with ice-cold PBS and either resuspended in ice-cold PBS or incubated with PE-conjugated anti-mouse secondary antibody (DAKO) and washed again before analysis with a BD Biosciences (San Jose, Calif.) FACScalibur flow cytometer.
The ability to downregulate MHC I is common to KSHV-K3, KSHV-K5, MHV68-K3 and MV-M153R (Coscoy and Ganem, 2000, supra; Guerin et al., 2002, supra; Ishido et al., 2000b supra; Stevenson et al., 2000, supra). Additional substrates are ICAM-1 and B7.2 (but not B7.1) for KSHV-K5, as well as CD95 and CD4 for M153R (Coscoy and Ganem, 2001, supra; Guerin et al., 2002, supra; Ishido et al., 2000a, supra; Mansouri et al., 2003, supra). Since only low copy numbers were detected in HeLa cells for transcripts corresponding to each of the MARCH-proteins (FIG. 7C, and data not shown), HeLa cells were transfected with expression plasmids for MARCH-I, II, III, IV, V and VIII. Surface expression of selected glycoproteins was monitored upon transfection. […] Surface expression of the respective markers was analyzed by flow cytometry. […]

HLA-A2.1 = assay: Surface expression of co-transfected HLA-A2.1 constructs on HeLa cells, flow cytometry
Procedure: as §1
(§2) The ability to downregulate MHC I is common to KSHV-K3, KSHV-K5, MHV68-K3 and MV-M153R (Coscoy and Ganem, 2000, supra; Guerin et al., 2002, supra; Ishido et al., 2000b supra; Stevenson et al., 2000, supra). Additional substrates are ICAM-1 and B7.2 (but not B7.1) for KSHV-K5, as well as CD95 and CD4 for M153R (Coscoy and Ganem, 2001, supra; Guerin et al., 2002, supra; Ishido et al., 2000a, supra; Mansouri et al., 2003, supra). Since only low copy numbers were detected in HeLa cells for transcripts corresponding to each of the MARCH-proteins (FIG. 7C, and data not shown), HeLa cells were transfected with expression plasmids for MARCH-I, II, III, IV, V and VIII. Surface expression of selected glycoproteins was monitored upon transfection. The following known substrates for viral K3-family members were tested: Fas (CD95) and HLA class I (MHC I), both of which are endogenously expressed in HeLa cells, as well as transfected HLA-A2.1 or CD4. […] Surface expression of the respective markers was analyzed by flow cytometry. GFP was used to identify transfected cells.
The most likely targets for ubiquitination on transmembrane glycoproteins are lysines in the cytoplasmic tail. To examine the role of lysines for MHC I and CD4 downregulation by MARCH-IV, a panel of constructs derived from the human MHC I molecule HLA-A2.1 and a lysine-deleted version of CD4 (Mansouri et al., 2003, supra) were used. In addition to MARCH-IV, MARCH-VIII was included in this analysis since it reduced HLA-A2.1 surface expression (FIG. 10A). […] To rule out the possibility that these mutations changed the target molecules in such a way that they are no longer recognized by MARCH-IV or VIII, a lysine residue into a HA-tag at the carboxyterminal end of HLA-A2.1 was introduced.

HLA class I (MHC I) = assay: Surface expression of endogenous MHC I on transfected HeLa cells, flow cytometry
Procedure: as §1, §2
With regards to whether MHC I downregulation by MARCH-IV was only observed at very high expression levels, since the viral immune evasion genes seem to be dedicated to MHC I downregulation, MHC I expression was compared at different expression levels of MARCH-IV or KSHV-K5 by taking advantage of the tetracycline-regulatable system to partially express either protein (Gossen, M. and H. Bujard, Proc. Natl. Acad. Sci. USA 89:5547-5551, 1992). Tet-off HeLa cells were transfected with either MARCH-IV or with KSHV-K5 in the presence of increasing amounts of tetracycline to shut off transcription. […]

MHC I = MHC I uptake assay in HeLa cells; details: transfected HeLa cells, 37° C. for 120 minutes
Procedure: Uptake Assay. Uptake of MHC I was measured as previously described (Ishido et al., 2000b, supra). In short, HeLa cells were transfected with MARCH-IV. Twenty four hours post-transfection cells were washed and an anti-MHC I antibody allowed to bind at 4° C. Cells were then either fixed immediately or transferred to 37° C. for 120 minutes to allow uptake of antibody bound glycoproteins. Antibody bound to glycoprotein was visualized using an Alexaflour:594-conjugated secondary antibody.
The observed downregulation of MHC I and CD4 by MARCH-IV permitted the study of the molecular mechanism by which MARCH-proteins reduce glycoprotein levels. […] The only known exception is MHV68-K3 which mediates proteasomal degradation of MHC I prior to its exit from the ER (Boname and Stevenson, 2001, supra). To study if MHC I was internalized by MARCH-IV, the recycling of MHC I in MARCH-IV transfected and non-transfected cells over the course of 2 hours was compared. MHC I on MARCH-IV transfected or non-transfected cells was labeled with anti-MHC I antibody at 4° C.

B1: MARCH-IV: human membrane-associated RING-CH ubiquitin ligase, SEQ ID NOS:45 and 57; construct used lacks the first 63 amino-acids (protein)
chain: WYCYGLCAPAPQMLRHQGLLKCRCRMLFNDLKVFLLRRPPQAPLPMHGDPQPPGLAANNTLPALGAGGWAGWRGPREVVGREPPPVPPPPPLPPSSVEDDWGGPATEPPASLLSSASSDDFCKEKTEDRYSLGSSLDSGMRTPLCRICFQGPEQGELLSPCRCDGSVKCTHQPCLIKWISERGCWSCELCYYKYHVIAISTKNPLQWQAISLTVIEKVQVAAAILGSLFLIASISWLIWSTFSPSARWQRQDLLFQICYGMYGFMDVVCIGLIIHEGPSVYRIFKRWQAVNQQWKVLNYDKTKDLEDQKAGGRTNPRTSSSTQANIPSSEEETAGTPAPEQGPAQAAGHPSGPLSHHHCAYTILHILSHLRPHEQRSPPGSSRELVMRVTTV
surface expression of transfected CD4 (CD4; HeLa cells co-transfected with CD4 and MARCH plasmid): reduced the surface expression
downregulation of CD4 with lysines removed from the cytoplasmic tail (CD4; HeLa cells, lysine-deleted CD4): resistance
downregulation of HLA-A2.1 with a lysine re-introduced into the C-terminal HA-tag (HLA-A2.1; HeLa cells): restored downregulation
surface expression of transfected HLA-A2.1 (HLA-A2.1; HeLa cells co-transfected with HLA-A2.1 and MARCH plasmid): reduced the surface expression
downregulation of HLA-A2.1 with lysines removed from the tail (HLA-A2.1; HeLa cells, lysine-less HLA-A2.1 construct): resistant
surface expression of MHC I (HLA class I (MHC I); HeLa cells transfected with MARCH plasmid and GFP, 24 h post-transfection): significantly downregulated
MHC I downregulation at tetracycline-regulated expression levels (HLA class I (MHC I); Tet-off HeLa cells, increasing amounts of tetracycline, below the detectable level of RING-CH protein expression): partial MHC I downregulation
internalization (uptake) of antibody-labeled MHC I (MHC I): rapid internalization
